Measured values published in the Immune Epitope Database (IEDB).

Experiments:
HLA-A*26:01 = assay: IEDB peptide-MHC binding, purified MHC/competitive/radioactivity; filed as Kd, often an IC50 or EC50 that approximates it; ≥ and ≤ were set here for values at or beyond the usual limits of such assays
HLA-A*23:01 = assay: as above
HLA-A*24:02 = assay: as above
HLA-A*03:01 [1] = assay: IEDB peptide-MHC binding, purified MHC/direct/fluorescence; filed as Kd, often an IC50 or EC50 that approximates it; ≥ and ≤ were set here for values at or beyond the usual limits of such assays; conditions: source organism: Entamoeba histolytica HM-1:IMSS
HLA-A*30:01 = assay: IEDB peptide-MHC binding, purified MHC/competitive/radioactivity; filed as Kd, often an IC50 or EC50 that approximates it; ≥ and ≤ were set here for values at or beyond the usual limits of such assays
HLA-A*01:01 [2] = assay: as above
HLA-A*02:01 = assay: IEDB peptide-MHC binding, purified MHC/direct/fluorescence; filed as Kd, often an IC50 or EC50 that approximates it; ≥ and ≤ were set here for values at or beyond the usual limits of such assays
HLA-A*69:01 = assay: as above
HLA-B*44:02 = assay: IEDB peptide-MHC binding, purified MHC/competitive/radioactivity; filed as Kd, often an IC50 or EC50 that approximates it; ≥ and ≤ were set here for values at or beyond the usual limits of such assays; conditions: source organism: Dengue virus 3 Martinique/1243/1999
HLA-A*01:01 [3] = assay: IEDB peptide-MHC binding, purified MHC/direct/fluorescence; filed as Kd, often an IC50 or EC50 that approximates it; ≥ and ≤ were set here for values at or beyond the usual limits of such assays
HLA-A*29:02 = assay: IEDB peptide-MHC binding, purified MHC/competitive/radioactivity; filed as Kd, often an IC50 or EC50 that approximates it; ≥ and ≤ were set here for values at or beyond the usual limits of such assays
HLA-A*30:02 = assay: as above
HLA-A*03:01 [4] = assay: as above; conditions: source organism: Dengue virus 1 Brazil/97-11/1997
HLA-B*15:01 = assay: IEDB peptide-MHC binding, purified MHC/direct/fluorescence; filed as Kd, often an IC50 or EC50 that approximates it; ≥ and ≤ were set here for values at or beyond the usual limits of such assays; conditions: source organism: Mammarenavirus juninense
[5] = source organism: Dengue virus 4 Philippines/H241/1956
[6] = source organism: Dengue virus 2 Jamaica/1409/1983
[7] = source organism: Vaccinia virus WR
[8] = source organism: Serratia proteamaculans
[9] = source organism: Dengue virus 1 Brazil/97-11/1997
[10] = source organism: Mammarenavirus guanaritoense
[11] = source organism: Dengue virus 3 Martinique/1243/1999
[12] = source organism: SARS coronavirus Tor2
[13] = source organism: Encephalitozoon cuniculi
[14] = source organism: Lassa virus Josiah
[15] = source organism: Mammarenavirus lassaense
[16] = source organism: Mammarenavirus machupoense
[17] = source organism: Salmonella enterica subsp. enterica serovar Paratyphi A

With EISNMLNIM the Kd (HLA-A*26:01; source organism: Dengue virus 1 Singapore/S275/1990) was 476 nM.
Work on EVEDYGFGM yielded a Kd (HLA-A*26:01; [5]) of 3900 nM.
With MWHVTRGAVL the Kd (HLA-A*23:01; [6]) was 1460 nM and the Kd (HLA-A*24:02; [6]) was 1690 nM.
With FMFGPTIYY the Kd (HLA-A*03:01 [1]) was 43 nM.
For RAIASMIMY, the Kd (HLA-A*30:01; [7]) was 71.1 nM.
Work on INRFTMKHK yielded a Kd (HLA-A*30:01; [6]) of 7950 nM.
KARCNHLTK was tested, and the Kd (HLA-A*30:01; [7]) was 0.214 nM.
Work on KVSCTILAA yielded a Kd (HLA-A*30:01; [6]) of 67.7 nM.
With TSETFSMGL the Kd (HLA-A*01:01 [2]; [5]) was 7690 nM.
Sequence GMPNWCVSI has a Kd (HLA-A*02:01; [8]) of 24.7 nM and a Kd (HLA-A*69:01; [8]) of 3410 nM.
STVSQLAKRF was tested, and the Kd (HLA-A*26:01; source organism: Dengue virus 1 Nauru/West Pac/1974) was 3590 nM.
For PTSEIQLTDY, the Kd (HLA-A*26:01; [9]) was at least 69700 nM and the Kd (HLA-A*01:01 [2]; [9]) was 255 nM.
Sequence QSDTVFDYY has a Kd (HLA-A*23:01; [7]) of at least 32500 nM and a Kd (HLA-A*24:02; [7]) of at least 72700 nM.
GDNALKINW gave a Kd (HLA-B*44:02) of 150 nM.
In the case of NLITCNDHY, the Kd (HLA-A*01:01 [3]; source organism: Mammarenavirus juninense) is reported as at least 20000 nM.
With NFGTFYEHI the Kd (HLA-A*23:01; [10]) was 451 nM, the Kd (HLA-A*29:02; [10]) was 400 nM and the Kd (HLA-A*24:02; [10]) was 1950 nM.
Sequence QGKRTLTPQP has a Kd (HLA-A*30:01; [11]) of 1270 nM.
For PVSIINNAVY, the Kd (HLA-A*23:01; [12]) was at least 70000 nM, the Kd (HLA-A*26:01; [12]) was 1580 nM and the Kd (HLA-A*29:02; [12]) was 101 nM. The Kd (HLA-A*24:02; [12]) was at least 70300 nM, the Kd (HLA-A*01:01 [2]; [12]) was 10400 nM and the Kd (HLA-A*30:02; [12]) was 601 nM.
KMYEYVFKG gave a Kd (HLA-A*02:01; [13]) of 40.4 nM and a Kd (HLA-A*69:01; [13]) of at least 20000 nM.
Sequence AGPVSQHNY has a Kd (HLA-A*30:02; [6]) of 23.2 nM.
Sequence LFHAFFGAL has a Kd (HLA-A*23:01; [10]) of 12500 nM, a Kd (HLA-A*29:02; [10]) of 3650 nM and a Kd (HLA-A*24:02; [10]) of at least 31900 nM.
Sequence VLCPYMPKV has a Kd (HLA-A*69:01; source organism: West Nile virus) of 1610 nM.
LSRKTFDTEY showed a Kd (HLA-A*01:01 [2]; [9]) of 503 nM and a Kd (HLA-A*30:02; [9]) of 975 nM.
HWPKSHTLW was tested, and the Kd (HLA-A*24:02; [6]) was 1170 nM.
Work on FSNSGADVLY yielded a Kd (HLA-A*23:01; [12]) of at least 70000 nM, a Kd (HLA-A*26:01; [12]) of 3560 nM and a Kd (HLA-A*29:02; [12]) of 74.9 nM. It also gave a Kd (HLA-A*24:02; [12]) of at least 70300 nM, a Kd (HLA-A*01:01 [2]; [12]) of 15.3 nM and a Kd (HLA-A*30:02; [12]) of 9.14 nM.
KVDWNQFTY gave a Kd (HLA-A*01:01 [3]; source organism: Giardia lamblia ATCC 50803) of 2 nM.
KTIWEIPQK was tested, and the Kd (HLA-A*30:01; [7]) was 11.8 nM.
VDYMPVMKRY gave a Kd (HLA-A*30:02; [5]) of 76.4 nM.
For YQPSSGCYI, the Kd (HLA-A*23:01; [14]) was 5410 nM, the Kd (HLA-A*29:02; [14]) was 14500 nM and the Kd (HLA-A*24:02; [14]) was 7220 nM.
In the case of QWFVERNMVI, the Kd (HLA-A*23:01; [11]) is reported as 111 nM and the Kd (HLA-A*24:02; [11]) is reported as 121 nM.
In the case of LYNFATCGLV, the Kd (HLA-A*23:01; [14]) is reported as 2350 nM, the Kd (HLA-A*26:01; [14]) is reported as at least 69700 nM and the Kd (HLA-A*29:02; [14]) is reported as 620 nM. For the same sequence, the Kd (HLA-A*24:02; [14]) was 11900 nM, the Kd (HLA-A*01:01 [2]; [14]) was at least 31300 nM and the Kd (HLA-A*30:02; [14]) was 575 nM.
For AWNSLEVEDY, the Kd (HLA-A*30:02; [6]) was 613 nM.
Work on VVRVQRPAK yielded a Kd (HLA-A*30:01; [9]) of 22.4 nM and a Kd (HLA-A*03:01 [4]) of 126 nM.
ICGGTIDAY gave a Kd (HLA-A*23:01; [15]) of at least 77700 nM, a Kd (HLA-A*26:01; [15]) of at least 77900 nM and a Kd (HLA-A*29:02; [15]) of at least 21800 nM. For the same sequence, the Kd (HLA-A*24:02; [15]) was at least 77500 nM, the Kd (HLA-A*01:01 [2]; [15]) was at least 40200 nM and the Kd (HLA-A*30:02; [15]) was 68.6 nM.
In the case of GYISTRVEM, the Kd (HLA-A*23:01; [6]) is reported as 1140 nM.
TNSVIIMAY was tested, and the Kd (HLA-A*23:01; [12]) was at least 77800 nM, the Kd (HLA-A*26:01; [12]) was 17300 nM and the Kd (HLA-A*29:02; [12]) was 84.5 nM. It also gave a Kd (HLA-A*24:02; [12]) of at least 77600 nM, a Kd (HLA-A*01:01 [2]; [12]) of at least 25800 nM and a Kd (HLA-A*30:02; [12]) of 2120 nM.
In the case of TWLVHKQWF, the Kd (HLA-A*23:01; [5]) is reported as 282 nM and the Kd (HLA-A*24:02; [5]) is reported as 302 nM.
SSVNMISRM was tested, and the Kd (HLA-A*26:01; [6]) was 1340 nM.
For GVYPMSIPAT, the Kd (HLA-A*30:01; [9]) was 10400 nM.
For RSKAFSNCY, the Kd (HLA-A*01:01 [3]; source organism: Influenza A virus (A/duck/Ontario/05/00 (H3N2))) was at least 20000 nM.
Sequence ALPPPPPPP has a Kd (HLA-A*02:01; source organism: Homo sapiens) of 12700 nM.
AGGLLLAAY showed a Kd (HLA-A*30:02; [5]) of 59.7 nM.
With SKIPGGNMY the Kd (HLA-A*30:02; [9]) was 2450 nM.
Work on HQYPANLFY yielded a Kd (HLA-A*30:01; [7]) of 50.8 nM.
Sequence FTDENKWKS has a Kd (HLA-A*01:01 [2]; [6]) of 5260 nM.
With AYSKSLKELV the Kd (HLA-A*23:01; [16]) was 16300 nM, the Kd (HLA-A*26:01; [16]) was at least 69700 nM and the Kd (HLA-A*29:02; [16]) was at least 57000 nM. The Kd (HLA-A*24:02; [16]) was 2640 nM, the Kd (HLA-A*01:01 [2]; [16]) was at least 70400 nM and the Kd (HLA-A*30:02; [16]) was at least 26700 nM.
With TSEIQLTDY the Kd (HLA-A*01:01 [2]; [9]) was 323 nM.
In the case of WIEFTNFKV, the Kd (HLA-A*23:01; [16]) is reported as at least 77700 nM, the Kd (HLA-A*26:01; [16]) is reported as at least 77900 nM and the Kd (HLA-A*29:02; [16]) is reported as 8070 nM. It also gave a Kd (HLA-A*24:02; [16]) of at least 77500 nM, a Kd (HLA-A*01:01 [2]; [16]) of at least 78100 nM and a Kd (HLA-A*30:02; [16]) of at least 49900 nM.
Work on AQLPRWVAT yielded a Kd (HLA-A*02:01; [17]) of 19900 nM and a Kd (HLA-A*69:01; [17]) of 7000 nM.
Sequence FMRSISDDA has a Kd (HLA-A*02:01; [13]) of 168 nM and a Kd (HLA-A*69:01; [13]) of at least 20000 nM.
With MANIFRGSY the Kd (HLA-A*30:02; [6]) was 113 nM.
Sequence LCLIPTAMAF has a Kd (HLA-A*23:01; [5]) of 1080 nM.
With LLFLPKAAY the Kd (HLA-B*15:01) was 99.4 nM.
